In patent US20140249045:
Numbering of substitutions follows the chain as printed. In names and notes the source's numbering stands.

T1: RagD GTPase as used in the in vitro GTPase assay, Q9NQL2
T1 chain: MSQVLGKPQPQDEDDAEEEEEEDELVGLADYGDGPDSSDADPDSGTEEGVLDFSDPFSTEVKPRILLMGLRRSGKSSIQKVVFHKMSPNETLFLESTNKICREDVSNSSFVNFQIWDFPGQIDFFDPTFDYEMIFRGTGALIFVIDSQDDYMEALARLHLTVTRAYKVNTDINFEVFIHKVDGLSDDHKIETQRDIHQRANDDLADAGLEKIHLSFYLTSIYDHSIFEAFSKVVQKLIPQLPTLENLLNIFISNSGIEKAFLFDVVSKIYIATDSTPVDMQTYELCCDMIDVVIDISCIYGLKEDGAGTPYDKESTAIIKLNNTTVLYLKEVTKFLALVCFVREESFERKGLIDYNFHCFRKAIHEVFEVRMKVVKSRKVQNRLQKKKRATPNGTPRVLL

B1: His-LRS-(759-1176) (protein)
chain: MADAGILRLYTWVEWVKEMVANWDSLRSGPASTFNDRVFASELNAGIIKTDQNYEKMMFKEALKTGFFEFQAAKDKYRELAVEGMHRELVFRFIEVQTLLLAPFCPHLCEHIWTLLGKPDSIMNASWPVAGPVNEVLIHSSQYLMEVTHDLRLRLKNYMMPAKGKKTDKQPLQKPSHCTIYVAKNYPPWQHTTLSVLRKHFEANNGKLPDNKVIASELGSMPELKKYMKKVMPFVAMIKENLEKMGPRILDLQLEFDEKAVLMENIVYLTNSLELEHIEVKFASEAEDKIREDCCPGKPLNVFRIEPGVSVSLVNPQPSNGHFSTKIEIRQGDNCDSIIRRLMKMNRGIKDLSKVKLMRFDDPLLGPRRVPVLGKEYTEKTPISEHAVFNVDLMSKKIHLTENGIRVDIGDTIIYLVH
B2: LRS (759-1176 a.a) fragment H844A (protein)
chain: B1 chain with H86A
B3: LRS (759-1176 a.a) fragment R845A (protein)
chain: B1 chain with R87A

Target: T1, RagD GTPase as used in the in vitro …

Protein	GTP hydrolysis by RagD GTPase (in vitro GTPase assay)	GAP activity on RagD (in vitro GTPase assay)
B1	addition of WT LRS fragment (759-1176 a.a) enhanced GTP hydrolysis by RagD GTPase in dose- and time-dependent manner	
B2		H844A and R845A mutants lost their GAP activity while WT LRS showed GAP activity
B3		H844A and R845A mutants lost their GAP activity while WT LRS showed GAP activity
